Laboratory results as given in the nanobody polyreactivity screen of Harvey et al. (2022).

Assay: yeast display, Sf9 membrane polyspecificity reagent, FACS + sequencing; frameworks hold sequencing errors
Procedure, shortened: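 Galactose-induced (36–48 hours) yeast carrying a synthetic nanobody display library were exposed to 10% biotinylated, detergent-solubilized Sf9 membrane reagent at 4 °C for 1 hour. FACS followed streptavidin microbead enrichment, using low and high (top ~1%) gates for expression (anti-HA) and reagent binding (streptavidin). Colony PCR, MiSeq 2 × 250 sequencing and CDR-length filtering followed. Labels for polyreactivity reflect the gate of origin.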
In the case of “QVQLVESGGGLDQAGGSLRLSCAASGSTLPVYALGWNRQAPGKERELVAAITDSGGNTYYADSVKGRFTISRDNAKNTVYLQMNSLKPEDTAVYYCNADAQSTSGYGYYAPYWMDYWGQGTQVTVSS”, the “polyreactivity (PSR sort gate)” value is reported as “low polyreactivity”. With “QVQLVESGGGLVQPGGSLRLSCAASGSIFYWYNMGWYRQAPGKERELVAAINDSGGSTHYADSVKGRFTISRDNEKNTFYLQMNSLKPEDTAVYYCAARKLSSYAYDYWGQGTQVTVSS” the “polyreactivity (PSR sort gate)” value was “low polyreactivity”. In the case of “QVQLVESGGGLVQAGGSLRLSCAASGFTFPFYTMGWYRQAPGKERELVAAITRSGASTFYADSVKGRFTISRDNAKNTVYLQMNSLKPEDTAVYYCAARRGYAPYEYWGQGTQVTVSS”, the “polyreactivity (PSR sort gate)” value is reported as “high polyreactivity”. For “QVQLVESGGGLVQAGGSLRLSCAASGYIFEYYAMGWYRQAPGKERELVAAISVGGGSTYYADSVKGRFTISRDNAKNTVYLQMNSLKPEDTAVYYCAAVQLYQKHQITYVAHEYWGQGTQVTVSS”, the “polyreactivity (PSR sort gate)” value was “low polyreactivity”. For “QVQLVESGGGLVQAGGSLRLSCAASGFTFRYYAMGWYRQAPGKERELVATISRGGSTNYVDSVKGRFTISRDNAKNTVYLQMNRLKPEDPAVYSCNARYKGWWVSTDSSTDDYWGQGTQVTVSS”, the “polyreactivity (PSR sort gate)” value was “high polyreactivity”. For “QVQLVESGGGLVQAGGSLRLSCAASGGTFFENAMGWDRQAPGKERELVAAISSSGASTYYADSVKGRFTISRDNAKNTVYLQMNSLKPEDTAVYYCNAGQRVRSTLYDYWGQGTQVTVSS”, the “polyreactivity (PSR sort gate)” value was “high polyreactivity”. For “QVQLVESGGGLVQAGGSLRLICAASGLILKNYAMGWYRQAPGKERELVAAITRSGGSTYYADSVKGRFTISRDNAKNTVYLQMNSLKPEDTAVYDCAARNPSGKGRYDYWGQGTQVTVSS”, the “polyreactivity (PSR sort gate)” value was “high polyreactivity”. In the case of “QVQLVESGGGLVQAGGSLRLSCAASGIIFDWYAMGWYRQAPGKERELVAAISDSGDTTYYADSVKGRFTISRDNAKNTVYLQMNSLKPEDTAVYYCNARVIGIYGYWGQGTQVTVSS”, the “polyreactivity (PSR sort gate)” value is reported as “high polyreactivity”. With “QVQLVESGGGLVQAGGSLRLSCAASGSIFSRYAMVWYRQAPGKERELVAAISWSGGRTYYADSVKGRFTISRDNAKNTVYLQMNSLKPEDTAVYYCAAPSYTTSWRYDYWGQGTQVTVSS” the “polyreactivity (PSR sort gate)” value was “high polyreactivity”. With “QVQLVESGGGLVQAGGSLRLSCAASGYIFRGYVMGWYRQAPGKERELVAAITSRGDSTYYADSVKGRFTISRDNAKNTVYLQMNSLKPEDTAVYYCNAVHYYVEYDYWGQGTQVTVSS” the “polyreactivity (PSR sort gate)” value was “high polyreactivity”. In the case of “QVQRVESGGGLVQAGGSLRLSCAPSGRTFGYYAMGWYRQAPGKERELVAAISRGGRTNYADSVKGRFTISRDNAKNTVYLQMNSLQPEDTAVYYCAKSGTIPRYTASYSLLDYWGQGTQVTVSS”, the “polyreactivity (PSR sort gate)” value is reported as “low polyreactivity”. In the case of “QVQLVESGGGLVQAGGSLRLSCAASGRIFDRNTMGWYRQAPGKEREFVAAISGSGGRTYYADSVKGRFTISRDNAKNTVYLQMNSLKPEDTAVYYCAAYYSRQYVGYGYWGQGTQVTVSS”, the “polyreactivity (PSR sort gate)” value is reported as “high polyreactivity”. For “QVQLVESGGGLVQAGGSLRLSCAASGSTFRFYGMGWYRQAPGKERELVAAITYRSGITYADSGKGGFSISRDNANNTVYLLMNSLKPEETAVYYCAARARRYTDEYDYWGQGTQVTVSS”, the “polyreactivity (PSR sort gate)” value was “low polyreactivity”. In the case of “QVQLVESGGGLVEAGGSLRLSCAASGRIFVHNAMGWYRHAPGKERELVAVITYSGGRTYYADSVKGRFTISRDNAKNTVYLQMNSLKPEDTAVYYCAVRAYKVSRYYYWGQGTLVTVSS”, the “polyreactivity (PSR sort gate)” value is reported as “low polyreactivity”. For “QVQLVESGGGLVQAGGSLRLSCASSGSTFDYYMGWYRHAPGKERELVAAITYSGGSTYYADSVKGRFTISRDNAKNTVYLQMKSLKPEDTAVYYCAKDRSTFDDFYSNYYWGQGTQVTVSS”, the “polyreactivity (PSR sort gate)” value was “low polyreactivity”. In the case of “QVQLVESGGGLVQAGGSLRLSCAASGSTIGAYAMGWYRQAPGKERELVAAITFSVGSTYYADSVKGRFTISRDNAKNTVYLQMNSLKPEDTAVYYCAADYYIYRSKYYQSTIQGYYYWGQGTQVTVSS”, the “polyreactivity (PSR sort gate)” value is reported as “high polyreactivity”. With “QVHLVESGGGLVQAGGSLRLSCAASGNIFGVYAMGWYRQAPGKERELVAAISDSTYYADSVKGRFTISRDNAKNTVYLQMTSLKPEDTAVYYCAAAVLGRYSAGDGYWGQGPQVTVSS” the “polyreactivity (PSR sort gate)” value was “low polyreactivity”. For “QVQLVESGGGLVQAGGSLRLSCAASGRTFYHYAMGWYRQAPGKEREFVAAISVSGGRTYYADSVKGRFTISRDNAKNTVYLQMNSLKPEDTAVYYCAARSGAQRGGGYWGQGTQVTVSS”, the “polyreactivity (PSR sort gate)” value was “high polyreactivity”. For “QVQLVESGGGLVQAGRTLRLSCAASGRLFSHNAMGWYRQAPGKEREWVAAISGSGGSTYYADSVKGRFTISRDNAKNTVYLQMNSLKPEDTAVYYCAARFAVLVTRRFYYWGQGTQVTVSS”, the “polyreactivity (PSR sort gate)” value was “high polyreactivity”. With “QVQLVESGGGLVQAGGSLRLSCAASGSTFAPYAMGWYRQAPGKERELVAVITWSGGRTYYADSVKGRFTISRDNAKNTVYLQMNSLKPEDTAVYYCNDVPLLQGFNYWGQGTQGTVSS” the “polyreactivity (PSR sort gate)” value was “high polyreactivity”. In the case of “QVQLVETGGGLVQAGGSLRLSCAASGSIFTYYTMGWYRQAPGKERELVAAINGRGHSTYYADSVKGRFTISRDNAKNTVYLHMNSLKPEDTAVYYCARRRQYEYNYWGQGTQVTVSS”, the “polyreactivity (PSR sort gate)” value is reported as “high polyreactivity”. In the case of “QVQLVESGGGLVQAGGSLRLSCAASGFIFRPYAMGWYRQAPGKERELVAAISFSGGSTYYADSVKGRFTISRDNAKNTVYLQMNSLIPEDTAVYYCAAVYYFSYWLGPDDYWGQGTQVTVSS”, the “polyreactivity (PSR sort gate)” value is reported as “low polyreactivity”. With “QVQLVESGGGLVHAGGSLRLSCAASGFIFPGNAMGWYIQAPGKERDLVAAISNSGSRTYYADSVKGRFTISRDNAKNTVYLQMISLKPEDTAVYYCNADVHNRGWPYDYWGQGTQVTVSS” the “polyreactivity (PSR sort gate)” value was “low polyreactivity”. For “QVQLVESGGGLVHAGGSLRLSCAACGRIFGPYDMGWYRQAPGKEMELVAAISWSGGNTYYADSVKGRFTISLDNAKNTVYLQMNSLKPEDTAVYYCNADYYPSSYPYDYWGQGTQVTVSS”, the “polyreactivity (PSR sort gate)” value was “low polyreactivity”. With “QVQLVESGGGLLQAGGSLPLSCAASGSIFPGYAMGWYRQAPGKERELVATITWSGGSTYYADSVKGRFTISRDNAKNTVYLQMNSLNPADTAVYYCNADSNWYYQWNYYGLYDYWGQATQVTVSS” the “polyreactivity (PSR sort gate)” value was “low polyreactivity”. For “QVQLVESGGGLVQAGGSLRLSCAAAGSIFGSYAMGWSRQAPGKERELVPAINSGGATIYSDSVKGRFTISRDNAKNTVYLQMNSLKPEDTAVYYCNAPGRRFNRYGGDYWGQGTQVTVSS”, the “polyreactivity (PSR sort gate)” value was “high polyreactivity”. With “QVQLVESGGGLVQAGGSLRLSCAASGGILRQNTMGWYRQAPGKERELVAAISSSGGRTYYADSVKGRFTISRDNAKNTVYLQMNSLKPEDTAVYYCNVPAKRYPYYIRQSTVYPGNYWGQGTQVTVSS” the “polyreactivity (PSR sort gate)” value was “high polyreactivity”. For “QVQLVESGGGLVQAGGSLRLSCAASGRIFPSYAMGWYRQAPGKERELVAAISSSSAGTYYADSVKGRFTISRDNAKNTVYLQMNSLKPEDTAVYYCAAASARYRQYKSYYYWGQGTQVTVSS”, the “polyreactivity (PSR sort gate)” value was “high polyreactivity”. In the case of “QVQLVESGGGLVQAGGSLRLSCAASGSTFHYYVMRWYRQAPGKERELVAAIRRSGGTTYYADSVKGRFTISRDNAKNTVYLQMNSLKPEDTAVYYCAAPGWYGGYPSYYYWGQGTQVSVSS”, the “polyreactivity (PSR sort gate)” value is reported as “low polyreactivity”. With “QVQLVESGGGLVQAGGSLRLSCAASGFTFYPYTMGWYRQAPGKERELVAVITYDSTYYADSVKGRFTISRDNAKNTVYLQMNSLKPEDTAVYYCNATGYSVSRSAYWYGWYDYWGQGTQVTVSS” the “polyreactivity (PSR sort gate)” value was “low polyreactivity”. For “QVQLVESGGGLVQAGGSLRLSCAASGSIFKYYTMGWYRQAPGKEREFVAAITRSGGSTYYADSVKGRFTISRDNAKNTVYLQMNSLKPEDTAVYYCAARTIRDQTVRFGHWGQGTQVTVSS”, the “polyreactivity (PSR sort gate)” value was “high polyreactivity”. In the case of “QVQLVESGGGLVQAGGSLRLSCAASGSTFQKNVMGWYRQAPGKERELVAAITSVGSTNYADSVKGRFTISRDNAKNTVYLQMNSLKPEDTAVYYCAKDQVPYYYVFGVYDYDYWGQGTQVTVSS”, the “polyreactivity (PSR sort gate)” value is reported as “low polyreactivity”. In the case of “QVQLVESGGGLVQAGGSLRLSCAASGSTFNINVMGWYRQAPGKERELVASISTGDITYYADSVKGRFTISRDNAKNTVYLQMNSLKPEDTAVYYCAAESYTGKYSWVWKWYDYWGQGTQVTVSS”, the “polyreactivity (PSR sort gate)” value is reported as “low polyreactivity”. For “QVQLVESGGGLVQAGGSLRLSCAASGSIFSYNAMGWYRQAPGKERELVADITGSGGSTYYADSVKGRFTISRDNAKNTVYLQMNSLKPEDTAVYYCNAVGQYYYLGYDYWGQGTQVTVSS”, the “polyreactivity (PSR sort gate)” value was “low polyreactivity”. With “QVQLVESGGGLVQAGGSLRLSCAASGSIYVNKAMGWYRQAPGKERELVAAISRSGTRTYYADSVKGRFTISRDNAKNTVYLQMNSLKPEDTAVYYCAVDYYYRMDYWGQGTQVTVSS” the “polyreactivity (PSR sort gate)” value was “high polyreactivity”. For “QVQVVESGGGLVQAGGSLRLSCAASGRIYQYYDMGWYRQAPGKERELVATITSGGSTNYADSVKGRFTISRDNAKNTVYLQMNSLKPEDTAVYYCAALAYTASDYQPYDATEYNYWGQGTQVTVSS”, the “polyreactivity (PSR sort gate)” value was “low polyreactivity”. In the case of “QVQLVESGGGLVQAGGSLRLSCAASGSIFYGYAMAWYRQAPGKERELVAAITRSGGSTYYADSVKGRFTISRDNAKNTVYLQMNSLKPEDTAVYYCAAVSRSRRMDYWGQGTQVTVSS”, the “polyreactivity (PSR sort gate)” value is reported as “high polyreactivity”. In the case of “QVQLVESGGGLVQAGGSLRLSCAASGSIFYGHAMGWYRQAPGKERELVATISWSTGSTYYADSVKGRFTISRDHAKNTVYLQMNSLKPEDTAVYYCAKEYFSKQWRGGYWGQGTQVTVSS”, the “polyreactivity (PSR sort gate)” value is reported as “high polyreactivity”. In the case of “QVQLVESGGGLVHAGGSLRLSCAASGIISGWNGMGWYRQAPGKERELVASIDKNGSTYYADSVKGRCTISRDNAKNTVYLQMISLKPEDTAVYYCASDVRYRGNREDYWGQGTQVNVSS”, the “polyreactivity (PSR sort gate)” value is reported as “low polyreactivity”. In the case of “QVQLVESGGGLVQAGGSLRLSCAASGRIIYRYAMGWYRQAPGKERELVATITWSTTSTYYADSVKGRFTISRDNAKNTVYLEMNSLKPEDTAVYYCASSIIPGFRRDPFGYWGQGTQVTVSS”, the “polyreactivity (PSR sort gate)” value is reported as “low polyreactivity”. In the case of “QVQLVESGGGLVQAGGSLRLSCAASGIILYPNAMVWYRQAPGKERELVAGITRSGVSTYYADSVKGRFTISRDNAKNTVYLQMNSLNPEDTAVYYCAKDRIYGSKGEDDDYWGQGTQVTVSS”, the “polyreactivity (PSR sort gate)” value is reported as “low polyreactivity”. With “QVQLVESGGGLVQAGGSLRLSSAASGSTFGYYAMGWYRQPPGKERELVAAISSSAGTTYYADSVKGCFTISRDNAKNTVYLQMNSLKPEDTAVYYCAADAVSGREYWGQGTQVTVST” the “polyreactivity (PSR sort gate)” value was “low polyreactivity”. In the case of “QVQLQESGGGLVQASGSIFHEPNMCWYRQAPGKERELVAGISSGANTYYADSVKGRFTISRDNAKNTVYLQMNSLKPEDTAVYHCAVVVHLYTELRYWGQDTQVTVSS”, the “polyreactivity (PSR sort gate)” value is reported as “high polyreactivity”.
